Measurements: paper PMC11744834, “Allelic variation in an expansin, MdEXP-A1, contributes to flesh firmness at harvest in apples”

T1: MdNAC1 (Malus domestica? (apple), UniProt D9ZJ87 1-280)
T1 sequence: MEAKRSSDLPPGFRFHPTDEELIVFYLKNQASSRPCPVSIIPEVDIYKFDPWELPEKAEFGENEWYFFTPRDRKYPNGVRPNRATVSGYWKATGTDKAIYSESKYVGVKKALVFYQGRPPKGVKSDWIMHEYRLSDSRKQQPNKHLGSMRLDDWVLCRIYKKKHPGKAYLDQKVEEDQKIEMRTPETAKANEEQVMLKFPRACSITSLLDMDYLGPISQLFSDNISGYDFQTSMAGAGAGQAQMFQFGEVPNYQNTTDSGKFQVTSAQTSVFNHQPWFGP

B1: MdEXP-A1-P2 binding probe (dsDNA)
DNA 1: TAACAACAAAATGTGCCTAACGTATACATGCAAAATAATTTACCT
DNA 2: AGGTAAATTATTTTGCATGTATACGTTAGGCACATTTTGTTGTTA
B2: MdEXP-A1-P1 binding probe (dsDNA)
DNA 1: TACATGCAAAATAATTTACCTACGTAATAAATAATAAATATTGTT
DNA 2: AACAATATTTATTATTTATTACGTAGGTAAATTATTTTGCATGTA

Biological target: T1, MdNAC1
Assay: EMSA; Chemiluminescent EMSA Kit (GS009, Beyotime); cold competitor 50x; buffer, salt, pH and temperature not stated
Details: protein: recombinant; tags: GST (pGEX-6p-1); chain copies: 2; label: biotin; blunt

Row | Binder | binding result
1 | B1 | binds
2 | B2 | binds
